Experimental data reported in patent US20250277026A1 (NOVAROCK BIOTHERAPEUTICS, published 2025).

T1: human Claudin-6 (human, UniProt P56747 1-220)
T1 construct: also called CLDN6
T1 sequence: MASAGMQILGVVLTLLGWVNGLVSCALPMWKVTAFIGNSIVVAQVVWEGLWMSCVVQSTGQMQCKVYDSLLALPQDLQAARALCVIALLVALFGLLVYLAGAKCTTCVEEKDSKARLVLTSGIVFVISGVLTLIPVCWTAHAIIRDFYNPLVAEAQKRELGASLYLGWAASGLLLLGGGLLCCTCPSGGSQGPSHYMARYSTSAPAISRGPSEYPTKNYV

T2: human Claudin-3 (human, UniProt O15551 1-220)
T2 construct: On transfected CHO-K1 cells, or endogenous on MCF7 cells; also called CLDN3
T2 sequence: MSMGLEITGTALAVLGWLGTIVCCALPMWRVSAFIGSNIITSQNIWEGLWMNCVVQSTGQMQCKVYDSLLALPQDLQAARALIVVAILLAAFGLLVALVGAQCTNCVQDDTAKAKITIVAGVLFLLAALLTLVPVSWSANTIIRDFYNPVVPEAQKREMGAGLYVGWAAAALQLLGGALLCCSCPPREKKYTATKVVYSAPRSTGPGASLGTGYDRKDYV

T3: human Claudin-4 (human, UniProt O14493 1-209)
T3 construct: On transfected CHO-K1 cells, or endogenous on MCF7 cells; also called CLDN4
T3 sequence: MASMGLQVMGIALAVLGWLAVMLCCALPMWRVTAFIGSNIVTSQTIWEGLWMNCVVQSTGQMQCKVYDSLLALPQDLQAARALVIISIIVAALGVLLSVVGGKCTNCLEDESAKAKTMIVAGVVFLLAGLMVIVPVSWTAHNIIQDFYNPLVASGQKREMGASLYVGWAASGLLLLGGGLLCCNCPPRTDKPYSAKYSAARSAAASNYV

T4: human Claudin-9 (human, UniProt O95484 1-217)
T4 construct: On transfected HEK293 cells; also called CLDN9
T4 sequence: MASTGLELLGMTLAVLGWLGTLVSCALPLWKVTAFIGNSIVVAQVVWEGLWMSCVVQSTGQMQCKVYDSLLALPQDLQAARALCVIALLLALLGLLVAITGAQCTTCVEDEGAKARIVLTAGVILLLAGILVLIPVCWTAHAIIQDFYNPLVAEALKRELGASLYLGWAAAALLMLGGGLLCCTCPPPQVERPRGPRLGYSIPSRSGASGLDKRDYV


Assays:
[1] = molecular target: T1, human Claudin-6; assay: FACS, NEC8 cells (endogenous CLDN6)
Method: (§1) Cells were fixed with 2% PFA (Alfa Aesar, catalog number: J61899) for 15 minutes at 4° C. and then washed. […] Flow cytometric analyses were performed on a flow cytometry instrument (Intellicyte, IQue plus, Sartorius).

[2] = molecular target: T2, human Claudin-3; assay: FACS, Claudin-3-CHO-K1 cells, serial dilution, MFI
Method: (§2) Briefly, Claudin-6-CHO-K1 cells verse parental CHO-K1 cells were incubated with anti-CLDN6 antibodies for 2 hours at 4° C. Cells were fixed with 2% PFA (Alfa Aesar, cat #: J61899) for 15 minutes at 4° C. and then washed. […] Flow cytometric analyses were performed on a flow cytometry instrument (Intellicyte, IQue plus, Sartorius).

[3] = molecular target: T1, human Claudin-6; assay: cell-based or functional assay
[4] = molecular target: T1, human Claudin-6; assay: FACS dose response, NEC8 cells (endogenous CLDN6)
Method: as §1
(§3) The anti-CLDN6 antibodies were also evaluated for their binding affinity to Claudin-6 overexpressing cell lines by FACS.

[5] = molecular target: T1, human Claudin-6; assay: FACS, Claudin-6-HEK293 cells, 5 µg/ml
[6] = molecular target: T1, human Claudin-6; assay: FACS dose response, Claudin-6-CHO-K1 cells
Method: as §3

[7] = molecular target: T1, human Claudin-6; assay: cell-based or functional assay; remark: listed apart in the source
[8] = molecular target: T1, human Claudin-6; assay: FACS dose response, Claudin-6-HEK293 cells
Method: as §3

[9] = molecular target: T3, human Claudin-4; assay: FACS, Claudin-4-CHO-K1 cells, serial dilution, MFI
Method: as §2

[10] = molecular target: T2, human Claudin-3; assay: FACS, Claudin-3-CHO-K1 cells, serial dilution, MFI; remark: listed apart in the source
Method: as §2

[11] = molecular target: T3, human Claudin-4; assay: FACS, Claudin-4-CHO-K1 cells, serial dilution, MFI; remark: listed apart in the source
Method: as §2

[12] = molecular target: T2, human Claudin-3; assay: FACS, Claudin-3-CHO-K1 cells, serial dilution, MFI; remark: listed apart in the source
Method: as §2

[13] = molecular target: T1, human Claudin-6; assay: FACS dose response, Claudin-6-HEK293 cells; remark: listed apart in the source
[14] = molecular target: T4, human Claudin-9; assay: FACS dose response, Claudin-9-HEK293 cells
Method: (§4) The binding specificity of the disclosed anti-Claudin-6 antibodies were further assessed for binding to Claudin-9 by FACS. Briefly, Claudin-9-HEK293 cells (GenScript, Item #U3288DL180_4) were incubated with recombinant Claudin-6 antibodies for 2 hours at 4° C. Cells were fixed with 2% PFA (Alfa Aesar, cat #: J61899) for 15 minutes at 4° C. and then washed. […] Flow cytometric analyses were performed on a flow cytometry instrument (Intellicyte, IQue plus, Sartorius).

[15] = molecular target: T1, human Claudin-6; assay: FACS, OV90 cells (endogenous CLDN6)
Method: as §1

[16] = molecular target: T1, human Claudin-6; assay: FACS, Claudin-6-CHO-K1 cells, 5 µg/ml
Method: as §2

[17] = molecular target: T2, human Claudin-3; assay: FACS on MCF7 cells, which endogenously express Claudin-3 and Claudin-4, MFI
[18] = molecular target: T1, human Claudin-6; assay: FACS dose response, Claudin-6-CHO cells
Method: as §2

[19] = molecular target: T2, human Claudin-3; assay: FACS on Claudin-3-CHO-K1 cells, MFI relative to the isotype control
Method: as §2

[20] = molecular target: T3, human Claudin-4; assay: FACS on Claudin-4-CHO-K1 cells, MFI
Method: as §2

[21] = molecular target: T1, human Claudin-6; assay: cell-based or functional assay; remark: listed apart in the source
[22] = molecular target: T1, human Claudin-6; assay: cell-based or functional assay; remark: listed apart in the source
[23] = molecular target: T3, human Claudin-4; assay: FACS on Claudin-4-CHO-K1 cells, MFI relative to the isotype control
Method: as §2

[24] = molecular target: T4, human Claudin-9; assay: FACS, Claudin-9-HEK293 cells, 5 µg/ml
Method: as §4

[25] = molecular target: T2, human Claudin-3; assay: FACS on MCF7 cells, which endogenously express Claudin-3 and Claudin-4; MFI relative to the isotype control
[26] = molecular target: T3, human Claudin-4; assay: as above
[27] = molecular target: T1, human Claudin-6; assay: FACS, NEC8 cells (endogenous CLDN6); remark: listed apart in the source
Method: as §1

[28] = molecular target: T3, human Claudin-4; assay: FACS on MCF7 cells, which endogenously express Claudin-3 and Claudin-4; MFI relative to the isotype control; remark: listed apart in the source
[29] = molecular target: T1, human Claudin-6; assay: FACS dose response, NEC8 cells (endogenous CLDN6); remark: listed apart in the source
[30] = molecular target: T3, human Claudin-4; assay: FACS on Claudin-4-CHO-K1 cells, MFI relative to the isotype control; remark: listed apart in the source
Method: as §2

[31] = molecular target: T3, human Claudin-4; assay: FACS on Claudin-4-CHO-K1 cells, MFI; remark: listed apart in the source
Method: as §2

[32] = molecular target: T1, human Claudin-6; assay: FACS, NEC8 cells (endogenous CLDN6), recombinant antibody
[33] = molecular target: T1, human Claudin-6; assay: FACS dose response, Claudin-6-HEK293 cells; remark: listed apart in the source

Binder | fold MFI over isotype control [1] | EC50 [4] | fold MFI over isotype control [5] | EC50 [6] | ADCC reporter assay on NEC8 cells, EC50 [7] | EC50 [8] | EC50 [13] | EC50 [14] | fold MFI over isotype control [15] | fold MFI over isotype control [16] | EC50 [18] | fold MFI over isotype control [24] | fold MFI over isotype control [27] | EC50 [29] | EC50 [33] | endocytosis killing (anti-hFc Fab-MMAF, CellTiter-Glo, 72 h) on NEC8 cells, EC50 [3] | endocytosis-mediated cytotoxicity on OV90 cells, EC50 [22] | other results
NR.N6.Ab4 (antibody, V domains shown) VH: QVQLVESGGGVVQPGRSLRLSCAASGFIFSSYGMHWVRQAPGKGLEWVAVIWYDGSNKFYADSVKGRFTISRDNSRKTLYLQMNSLRAEDTAVYYCARDGRYFDWGGSYYYYYGMDVWGQGTTVTVSS VL: not shown | 19 fold | 8.34 nM | 23 fold | 4.79 nM | 9.83 nM | 15.7 nM | – | – | – | – | – | – | – | – | – | 0.41 nM | – | binding result [9]: no binding (tested: log 1.5 (about 33 nM)); binding result [10]: no binding (tested: log 1.5 (about 33 nM))
NR.N6.Ab1 (antibody, human IgG1, V domains shown, Human variable domains from Trianni mice; also called NR.NR6.Ab1) VH: QVQLVQSGAEVKKPGASVKVSCKASGNTFTSYDINWVRQATGQGLEWMGWMNPNSGNTGYAQKFQGRVTMTRNTSISTAYMELSSLRSEDTAVYYCVYYNYVWGSFRFDDWGQGTLVTVSS VL: DIQLTQSPSFLSASVGDRVTITCRASQGISSYLAWYQQKPGKAPKLLIYAASTLQSGVPSRFSGSGSGTEFTLAVSSLQPEDFATYYCQQLNSYPYTFGQGTKLEIK | – | – | – | – | 0.4 nM | – | 0.55 nM | 6.72 nM | 19 fold | 28 fold | 0.97 nM | 16 fold | 27 fold | 1.39 nM | 0.63 nM | 0.14 nM | 1.08 nM | fold MFI over isotype control [28]: 0.9 x; fold MFI over isotype control [30]: 1.1 x; binding result [31]: no binding; fold MFI over isotype control [32]: 32 fold; endocytosis-mediated cytotoxicity (anti-hFc Fab-MMAF, CellTiter-Glo) on NEC8 cells, EC50 mean (St. Dev. 0.11) [21]: 0.2 nM
NR.N6.Ab1 variant N73D (antibody, V domains shown, the LALA changes of the constant region are explained nowhere; also called NR.N6.Ab1N73D; NR.N6.Ab1 N73D) VH: QVQLVQSGAEVKKPGASVKVSCKASGNTFTSYDINWVRQATGQGLEWMGWMNPNSGNTGYAQKFQGRVTMTRDTSISTAYMELSSLRSEDTAVYYCVYYNYVWGSFRFDDWGQGTLVTVSS VL: DIQLTQSPSFLSASVGDRVTITCRASQGISSYLAWYQQKPGKAPKLLIYAASTLQSGVPSRFSGSGSGTEFTLAVSSLQPEDFATYYCQQLNSYPYTFGQGTKLEIK | – | – | – | – | – | – | – | – | – | – | – | – | – | 0.74 nM | 0.42 nM | – | – | –

Further lines, with some results ahead:

fold MFI over isotype control [1] | EC50 [4] | fold MFI over isotype control [5] | EC50 [6] | ADCC reporter assay on NEC8 cells, EC50 [7] | EC50 [8] | EC50 [13] | EC50 [14] | fold MFI over isotype control [15] | fold MFI over isotype control [16] | EC50 [18] | fold MFI over isotype control [24] | fold MFI over isotype control [27] | EC50 [29] | EC50 [33] | Binder | endocytosis killing (anti-hFc Fab-MMAF, CellTiter-Glo, 72 h) on NEC8 cells, EC50 [3] | endocytosis-mediated cytotoxicity on OV90 cells, EC50 [22] | other results
20 fold | 3.27 nM | 31 fold | 4.69 nM | 6.43 nM | 5.17 nM | – | – | – | – | – | – | – | – | – | NR.N6.Ab3 (antibody, V domains shown) VH: QVQLVESGGGVVQPGRSLRLSCAASGFTFSGYGMHWVRQAPGKGLEWVAAIWYDGSNKYYADSVKGRFTISSDNSKNTLYLQMKSLRAEDTAVYYCAREWYSSGWSMYDVFDIWGQGTMVTVSS VL: QTVVTQEPSFSVSPGGTVTLTCGLSSGSVSTSYYPSWYQQTPGQAPRTLIYSTNTRSSGVPDRFSGSILGNKAALTITGAQADDESDYYCVLYMGSGIWVFGGGTKLTVL | 0.51 nM | – | binding result [2]: no binding (tested: log 1.5 (about 33 nM))
21 fold | 5.92 nM | 24 fold | 3.99 nM | 3.78 nM | 4.13 nM | – | – | – | – | – | – | – | – | – | NR.N6.Ab5 (antibody, V domains shown, LCDR 41, 45, 43); also called NR.4.N6.Ab5) VH: QVQLVESGGGAVQPGRSLRLSCAASGFIFSSYGMHWVRQAPGKGLEWVAIIWFDGRNKNYADSVKGRFTISRDNSKKTLYLEMSSLRAEDTAVYYCARDGRYFDWGGSYYYYYGMDVWGQGTTVTVSS VL: not shown | 0.26 nM | – | binding result [11]: no binding (tested: log 1.5 (about 33 nM)); binding result [12]: no binding (tested: log 1.5 (about 33 nM))
– | – | – | – | – | – | 1 nM | 1.49 nM | 17 fold | 24 fold | 6.88 nM | 53 fold | 25 fold | – | – | NR.N6.Ab2 (antibody, V domains shown, hybridoma-purified antibody in the Claudin-3-CHO-K1, Claudin-4-CHO-K1 and MCF7 assays) VH: QVQLVESGGGVVQPGRSLRLSCTASGFTFSHYGMHWVRQAPGKGLEWVSFLWFDGSKDNYADSVKGRFTISRDNSKNMLYLRMDSLRAEDTAVYYCARNGGLTIFDYWGQGTLVTVSS VL: AIQLTQSPSSLSASVGDRVTITCRASQGINSWLAWYQQKPEKAPKSLIYAASSLQSGVPSRFSGSGSGTDFTLTISSLQPEDFATYYCQQYNFYPYTFGQGTKLEII | – | 2.32 nM | binding result [17]: no binding; fold MFI over isotype control [19]: 0.8 x; binding result [20]: no binding; endocytosis-mediated cytotoxicity (anti-hFc Fab-MMAF, CellTiter-Glo) on NEC8 cells, EC50 mean (St. Dev. 0.07) [21]: 0.1 nM; fold MFI over isotype control [23]: 0.9 x; fold MFI over isotype control [25]: 1.1 x; fold MFI over isotype control [26]: 1.1 x
